{
  "source": "patent US20120316071A1",
  "about": "(published 2012)",
  "data": [
    {"target": "T1, Recombinant Human DLL4 (human, UniProt Q9NR61 27-524)", "T1 construct": "Bought recombinant human DLL4 (R&D Systems Cat#1506-D4/CF); also called delta-like protein 4; Delta-like 4", "assay": "ELISA, DLL4 coated on the plate, Fab at 100 nM, signal minus blank", "values": [
      {"binder": "Fab VH5-51_IGHD5-18*01>3_IGHJ4*01 G100K/G104T G24T/S28R/G35V (H:KT TRV) & V3-4_IGLJ1*01 (Fab, V domains shown, Fab with the parent (unmutated) light chain; expressed from plasmid A (CH1, His6 and Flag tags) and plasmid E (lambda CL); also called H:KT TRV & L:wt) VH: EVQLVQSGAEVKKPGESLKISCKTSGYRFTSYWIVWVRQMPGKGLEWMGIIYPGDSDTRYSPSFQGQVTISADKSISTAYLQWSSLKASDTAMYYCARRKYSYTYDYFDYWGQGTLVTVSS VL: QTVVTQEPSFSVSPGGTVTLTCGLSSGSVSTSYYPSWYQQTPGQAPRTLIYSTNTRSSGVPDRFSGSILGNKAALTITGAQADDESDYYCVLYMGSGISYVFGTGTKVTVL", "ELISA Signal-blank (100 nM Fab)": 0.393},
      {"binder": "Fab VH5-51_IGHD5-18*01>3_IGHJ4*01 G100K/G104T G24T/S28R/G35V (H:KT TRV) & V3-4_IGLJ1*01 M94S (Fab, V domains shown, Fab; expressed from plasmid A (CH1, His6 and Flag tags) and plasmid E (lambda CL)) VH: EVQLVQSGAEVKKPGESLKISCKTSGYRFTSYWIVWVRQMPGKGLEWMGIIYPGDSDTRYSPSFQGQVTISADKSISTAYLQWSSLKASDTAMYYCARRKYSYTYDYFDYWGQGTLVTVSS VL: QTVVTQEPSFSVSPGGTVTLTCGLSSGSVSTSYYPSWYQQTPGQAPRTLIYSTNTRSSGVPDRFSGSILGNKAALTITGAQADDESDYYCVLYSGSGISYVFGTGTKVTVL", "ELISA Signal-blank (100 nM Fab)": 0.195},
      {"binder": "Fab VH5-51_IGHD5-18*01>3_IGHJ4*01 G100K/G104T G24T/S28R/G35V (H:KT TRV) & V3-4_IGLJ1*01 M94P (Fab, V domains shown, Fab; expressed from plasmid A (CH1, His6 and Flag tags) and plasmid E (lambda CL)) VH: EVQLVQSGAEVKKPGESLKISCKTSGYRFTSYWIVWVRQMPGKGLEWMGIIYPGDSDTRYSPSFQGQVTISADKSISTAYLQWSSLKASDTAMYYCARRKYSYTYDYFDYWGQGTLVTVSS VL: QTVVTQEPSFSVSPGGTVTLTCGLSSGSVSTSYYPSWYQQTPGQAPRTLIYSTNTRSSGVPDRFSGSILGNKAALTITGAQADDESDYYCVLYPGSGISYVFGTGTKVTVL", "ELISA Signal-blank (100 nM Fab)": 0.256},
      {"binder": "Fab VH5-51_IGHD5-18*01>3_IGHJ4*01 G100K/G104T G24T/S28R/G35V (H:KT TRV) & V3-4_IGLJ1*01 M94N (Fab, V domains shown, Fab; expressed from plasmid A (CH1, His6 and Flag tags) and plasmid E (lambda CL)) VH: EVQLVQSGAEVKKPGESLKISCKTSGYRFTSYWIVWVRQMPGKGLEWMGIIYPGDSDTRYSPSFQGQVTISADKSISTAYLQWSSLKASDTAMYYCARRKYSYTYDYFDYWGQGTLVTVSS VL: QTVVTQEPSFSVSPGGTVTLTCGLSSGSVSTSYYPSWYQQTPGQAPRTLIYSTNTRSSGVPDRFSGSILGNKAALTITGAQADDESDYYCVLYNGSGISYVFGTGTKVTVL", "ELISA Signal-blank (100 nM Fab)": 0.205},
      {"binder": "Fab VH5-51_IGHD5-18*01>3_IGHJ4*01 G100K/G104T G24T/S28R/G35V (H:KT TRV) & V3-4_IGLJ1*01 R56A (Fab, V domains shown, Fab; expressed from plasmid A (CH1, His6 and Flag tags) and plasmid E (lambda CL)) VH: EVQLVQSGAEVKKPGESLKISCKTSGYRFTSYWIVWVRQMPGKGLEWMGIIYPGDSDTRYSPSFQGQVTISADKSISTAYLQWSSLKASDTAMYYCARRKYSYTYDYFDYWGQGTLVTVSS VL: QTVVTQEPSFSVSPGGTVTLTCGLSSGSVSTSYYPSWYQQTPGQAPRTLIYSTNTASSGVPDRFSGSILGNKAALTITGAQADDESDYYCVLYMGSGISYVFGTGTKVTVL", "ELISA Signal-blank (100 nM Fab)": 0.442},
      {"binder": "Fab VH5-51_IGHD5-18*01>3_IGHJ4*01 G100K/G104T G24T/S28R/G35V (H:KT TRV) & V3-4_IGLJ1*01 M94A (Fab, V domains shown, Fab; expressed from plasmid A (CH1, His6 and Flag tags) and plasmid E (lambda CL)) VH: EVQLVQSGAEVKKPGESLKISCKTSGYRFTSYWIVWVRQMPGKGLEWMGIIYPGDSDTRYSPSFQGQVTISADKSISTAYLQWSSLKASDTAMYYCARRKYSYTYDYFDYWGQGTLVTVSS VL: QTVVTQEPSFSVSPGGTVTLTCGLSSGSVSTSYYPSWYQQTPGQAPRTLIYSTNTRSSGVPDRFSGSILGNKAALTITGAQADDESDYYCVLYAGSGISYVFGTGTKVTVL", "ELISA Signal-blank (100 nM Fab)": 0.216},
      {"binder": "Fab VH5-51_IGHD5-18*01>3_IGHJ4*01 G100K/G104T G24T/S28R/G35V (H:KT TRV) & V3-4_IGLJ1*01 M94F (Fab, V domains shown, Fab; expressed from plasmid A (CH1, His6 and Flag tags) and plasmid E (lambda CL)) VH: EVQLVQSGAEVKKPGESLKISCKTSGYRFTSYWIVWVRQMPGKGLEWMGIIYPGDSDTRYSPSFQGQVTISADKSISTAYLQWSSLKASDTAMYYCARRKYSYTYDYFDYWGQGTLVTVSS VL: QTVVTQEPSFSVSPGGTVTLTCGLSSGSVSTSYYPSWYQQTPGQAPRTLIYSTNTRSSGVPDRFSGSILGNKAALTITGAQADDESDYYCVLYFGSGISYVFGTGTKVTVL", "ELISA Signal-blank (100 nM Fab)": 0.317},
      {"binder": "Fab VH5-51_IGHD5-18*01>3_IGHJ4*01 G100K/G104T G24T/S28R/G35V (H:KT TRV) & V3-4_IGLJ1*01 M94D (Fab, V domains shown, Fab; expressed from plasmid A (CH1, His6 and Flag tags) and plasmid E (lambda CL)) VH: EVQLVQSGAEVKKPGESLKISCKTSGYRFTSYWIVWVRQMPGKGLEWMGIIYPGDSDTRYSPSFQGQVTISADKSISTAYLQWSSLKASDTAMYYCARRKYSYTYDYFDYWGQGTLVTVSS VL: QTVVTQEPSFSVSPGGTVTLTCGLSSGSVSTSYYPSWYQQTPGQAPRTLIYSTNTRSSGVPDRFSGSILGNKAALTITGAQADDESDYYCVLYDGSGISYVFGTGTKVTVL", "ELISA Signal-blank (100 nM Fab)": 0.07},
      {"binder": "Fab VH5-51_IGHD5-18*01>3_IGHJ4*01 G100K/G104T G24T/S28R/G35V (H:KT TRV) & V3-4_IGLJ1*01 M94G (Fab, V domains shown, Fab; expressed from plasmid A (CH1, His6 and Flag tags) and plasmid E (lambda CL)) VH: EVQLVQSGAEVKKPGESLKISCKTSGYRFTSYWIVWVRQMPGKGLEWMGIIYPGDSDTRYSPSFQGQVTISADKSISTAYLQWSSLKASDTAMYYCARRKYSYTYDYFDYWGQGTLVTVSS VL: QTVVTQEPSFSVSPGGTVTLTCGLSSGSVSTSYYPSWYQQTPGQAPRTLIYSTNTRSSGVPDRFSGSILGNKAALTITGAQADDESDYYCVLYGGSGISYVFGTGTKVTVL", "ELISA Signal-blank (100 nM Fab)": 0.199},
      {"binder": "Fab VH5-51_IGHD5-18*01>3_IGHJ4*01 G100K/G104T G24T/S28R/G35V (H:KT TRV) & V3-4_IGLJ1*01 N54A (Fab, V domains shown, Fab; expressed from plasmid A (CH1, His6 and Flag tags) and plasmid E (lambda CL)) VH: EVQLVQSGAEVKKPGESLKISCKTSGYRFTSYWIVWVRQMPGKGLEWMGIIYPGDSDTRYSPSFQGQVTISADKSISTAYLQWSSLKASDTAMYYCARRKYSYTYDYFDYWGQGTLVTVSS VL: QTVVTQEPSFSVSPGGTVTLTCGLSSGSVSTSYYPSWYQQTPGQAPRTLIYSTATRSSGVPDRFSGSILGNKAALTITGAQADDESDYYCVLYMGSGISYVFGTGTKVTVL", "ELISA Signal-blank (100 nM Fab)": 0.318}
    ]}
  ]
}
